± gives the standard deviation of the averaged measurements.
Columns and labels:
[1] = system: Saccharomyces cerevisiae; experiment: protein stability index of tFT-peptide fusion (C-terminal peptide) (PSI (0-1 scale)); higher = more stable (slower turnover)
Description: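 MPS profiling in S. cerevisiae of the tFT-X12 degron library: putative degron peptides plus stable controls, 12 aa, fused to the C-terminus of a sfGFP-mCherry timer. Cells are FACS-sorted into 8 mCherry/sfGFP bins and deep-sequenced. PSI runs from 0 (unstable) to 1 (stable). Backgrounds are wild type, das1Δ and doa10Δ at 30 °C, and wild type, das1Δ, cdc34-1 and cdc53-1 at 37 °C; 2-3 technical replicates each.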

[2] = system: Saccharomyces cerevisiae; experiment: as above; conditions: genetic background: wild type; temperature: 30 C
[3] = genetic background: cdc34-1, temperature: 37 C
[4] = genetic background: cdc53-1, temperature: 37 C
[5] = genetic background: das1 deletion, temperature: 30 C
[6] = genetic background: das1 deletion, temperature: 37 C
[7] = genetic background: doa10 deletion, temperature: 30 C
[8] = genetic background: wild type, temperature: 30 C
[9] = genetic background: wild type, temperature: 37 C
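Further: PSI is a weighted mean of sequencing reads over stability bins, variants kept only with over 10 reads, mCherry proximal and sfGFP distal, peptide attached via GGGS linker.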

Sequence	protein stability index [1, 3]	protein stability index [1, 4]	protein stability index [1, 5]	protein stability index [1, 6]	protein stability index [1, 7]	protein stability index [1, 8]	protein stability index [1, 9]	protein stability index [2]
LHLTFRLAVLYY	0.3205 ± 0.002	0.355 ± 0.0097	0.293 ± 0.037	0.395 ± 0.03	0.317 ± 0.029	0.275 ± 0.021	0.371 ± 0.039	0.338 ± 0.032
GPWVIFSHLLLT	0.459 ± 0.037	0.49 ± 0.017	0.405 ± 0.017	0.546 ± 0.013	0.258 ± 0.0084	0.249 ± 0.02	0.3963 ± 0.0027	0.404 ± 0.023
FFFFSFFLATFS	0.227 ± 0.018	0.36 ± 0.016	0.288 ± 0.055	0.418 ± 0.013	0.264 ± 0.029	0.26 ± 0.036	0.39074 ± 0.00019	0.305 ± 0.026
HLYITGIIRKIT	0.519 ± 0.027	0.619 ± 0.11	0.668 ± 0.054	0.695 ± 0.016	0.0875 ± 0.0033	0.165 ± 0.024	0.126 ± 0.029	0.179 ± 0.036
AVLSFVLVRSVV	0.58 ± 0.052	0.619 ± 0.012	0.417 ± 0.026	0.604 ± 0.017	0.399 ± 0.031	0.417 ± 0.021	0.574 ± 0.0062	0.471 ± 0.02
GVGAISLGFSWL	0.734 ± 0.021	0.763 ± 0.013	0.658 ± 0.019	0.7855 ± 0.0022	0.652 ± 0.03	0.67 ± 0.027	0.7491 ± 0.0035	0.717 ± 0.013
RLPVMFWFVCSF	0.561 ± 0.053	0.641 ± 0.024	0.477 ± 0.026	0.6288 ± 0.0029	0.47 ± 0.038	0.466 ± 0.026	0.638 ± 0.055	0.506 ± 0.042
WILLVLACFSSG	0.25 ± 0.0033	0.335 ± 0.051	0.272 ± 0.036	0.40822 ± 2.1e-05	0.215 ± 0.011	0.249 ± 0.034	0.361 ± 0.017	0.325 ± 0.0036
LFRRMWVEIFYV	0.439 ± 0.044	0.541 ± 0.043	0.423 ± 0.029	0.566 ± 0.015	0.0969 ± 0.016	0.119 ± 0.0081	0.155 ± 0.021	0.253 ± 0.046
GSLGHCWFLFGV	0.59 ± 0.038	0.538 ± 0.011	0.539 ± 0.022	0.461 ± 0.0075	0.556 ± 0.064	0.538 ± 0.0098	0.475 ± 0.021	0.463 ± 0.016
RVPCCLSFVPVC	0.508 ± 0.032	0.5131 ± 0.004	0.394 ± 0.026	0.5682 ± 0.0047	0.363 ± 0.0097	0.405 ± 0.027	0.5362 ± 0.0037	0.452 ± 0.033
GGGWCEMLIVVG	0.506 ± 0.018	0.512 ± 0.026	0.358 ± 0.029	0.5495 ± 0.0039	0.324 ± 0.013	0.367 ± 0.03	0.542 ± 0.017	0.441 ± 0.018
PYLSAPLVATLS	0.378 ± 0.014	0.424 ± 0.025	0.274 ± 0.057	0.474 ± 0.0082	0.234 ± 0.012	0.28 ± 0.045	0.426 ± 0.0049	0.3853 ± 0.0035
LLCSPPPLTVPA	0.394 ± 0.044	0.4424 ± 0.00065	0.324 ± 0.045	0.478 ± 0.017	0.275 ± 0.0087	0.327 ± 0.034	0.44 ± 0.0091	0.454 ± 0.025
WSLRFRRMMLRC	0.3765 ± 0.00088	0.425 ± 0.0072	0.429 ± 0.028	0.534 ± 0.0069	0.137 ± 0.0015	0.127 ± 0.026	0.16 ± 0.024	0.283 ± 0.015
LFFWWVAVVFRV	0.0928 ± 0.025	0.0916 ± 0.006	0.156 ± 0.049	0.236 ± 0.029	0.204 ± 0.016	0.133 ± 0.02	0.189 ± 0.014	0.23 ± 0.038
RGPSQVIVAFFV	0.663 ± 0.027	0.6843 ± 0.0038	0.522 ± 0.026	0.688 ± 0.0083	0.3186 ± 0.0031	0.371 ± 0.026	0.5674 ± 0.0018	0.49 ± 0.016
IIFWMWVIIRVY	0.121 ± 0.11	0.0686 ± 0.034	0.142 ± 0.04	0.205 ± 0.0091	0.114 ± 0.04	0.108 ± 0.039	0.116 ± 0.092	0.139 ± 0.044
MAMMQTILIIIH	0.0295 ± 0.01	0.158 ± 0.14	0.117 ± 0.044	0.186 ± 0.014	0.0894 ± 0.029	0.119 ± 0.026	0.173 ± 0.0081	0.171 ± 0.0028
RKKKRNKKKMIM	0.716 ± 0.058	0.734 ± 0.019	0.629 ± 0.019	0.706 ± 0.022	0.362 ± 0.024	0.342 ± 0.09	0.621 ± 0.0081	0.522 ± 0.044
VWGLWRLCVWGV	0.3896 ± 0.0011	0.479 ± 0.0054	0.327 ± 0.036	0.5012 ± 0.0017	0.274 ± 0.0082	0.302 ± 0.025	0.477 ± 0.0086	0.371 ± 0.057
LWFGAWWLGAVG	0.318 ± 0.031	0.361 ± 0.0043	0.411 ± 0.0063	0.336 ± 0.0087	0.4166 ± 0.0011	0.421 ± 0.0065	0.32 ± 0.013	0.457 ± 0.0053
YFLFRYIVITVF	0.0486 ± 0.029	0.0672 ± 0.021	0.0711 ± 0.025	0.135 ± 0.026	0.0326 ± 0.015	0.0569 ± 0.012	0.06947 ± 0.00069	0.0865 ± 0.032
PVTAVYFVLYIW	0.134 ± 0.0025	0.231 ± 0.017	0.177 ± 0.032	0.332 ± 0.019	0.143 ± 0.01	0.167 ± 0.026	0.298 ± 0.035	0.251 ± 0.03
GFCFVFVFQCFF	0.339 ± 0.0077	0.451 ± 0.034	0.288 ± 0.031	0.431 ± 0.0031	0.267 ± 0.0043	0.276 ± 0.039	0.402 ± 0.014	0.394 ± 0.049
RLVVSRNFYRLC	0.622 ± 0.054	0.723 ± 0.017	0.6318 ± 0.006	0.7235 ± 0.0012	0.125 ± 0.0022	0.135 ± 0.014	0.342 ± 0.0091	0.304 ± 0.1
HYTSFAVPPLVY	0.524 ± 0.037	0.476 ± 0.025	0.366 ± 0.018	0.5275 ± 0.0048	0.3404 ± 0.0026	0.376 ± 0.018	0.487 ± 0.011	0.481 ± 0.024
VVRVSFSFCLSC	0.476 ± 0.023	0.498 ± 0.045	0.48 ± 0.029	0.459 ± 0.021	0.408 ± 0.026	0.388 ± 0.029	0.425 ± 0.024	0.373 ± 0.015
VVPYPFLTLLNI	0.417 ± 0.026	0.407 ± 0.029	0.403 ± 0.041	0.539 ± 0.014	0.589 ± 0.033	0.381 ± 0.012	0.492 ± 0.0084	0.58 ± 0.12

— the supplement of paper PMC10724198
